Patent US6074851A, “Catalytic macro molecules having cdc25B like activity” (Pharmacia & UpJohn Company, priority 1997, dated 2000)

B1: human cdc25B (364-529) VHR-like catalytic domain, GST-free, GIQ-cdc25B (364-529), SEQ ID NO: 24 (Homo sapiens) (protein)
chain: HDEIENLLDSDHRELIGDYSKAFLLQTVDGKHQDLKYISPETMVALLTGKFSNIVDKFVIVDCRYPYEYEGGHIKTAVNLPLERDAESFLLKSPIAPCSLDKRVILIFHCEFSSERGPRMCRFIRERDRAVNDYPSLYYPEMYILKGGYKEFFPQHPNFCEPQDYR
B2: near full length GST-cdc25B (31-566) fusion protein (Homo sapiens) (protein)
chain: GLLLGSHGLLGSPVRAAASSPVTTLTQTMHDLAGLGSRSRLTHLSLSRRASESSLSSESSESSDAGLCMDSPSPMDPHMAEQTFEQAIQAASRIIRNEQFAIRRFQSMPVRLLGHSPVLRNITNSQAPDGRRKSEAGSGAASSSGEDKENDGFVFKMPWKPTHPSSTHALAEWASRREAFAQRPSSAPDLMCLSPDRKMEVEELSPLALGRFSLTPAEGDTEEDDGFVDILESDLKDDDAVPPGMESLISAPLVKTLEKEEEKDLVMYSKCQRLFRSPSMPCSVIRPILKRLERPQDRDTPVQNKRRRSVTPPEEQQEAEEPKARVLRSKSLCHDEIENLLDSDHRELIGDYSKAFLLQTVDGKHQDLKYISPETMVALLTGKFSNIVDKFVIVDCRYPYEYEGGHIKTAVNLPLERDAESFLLKSPIAPCSLDKRVILIFHCEFSSERGPRMCRFIRERDRAVNDYPSLYYPEMYILKGGYKEFFPQHPNFCEPQDYRPMNHEAFKDELKTFRLKTRSWAGERSRRELCSRLQDQ
B3: human cdc25B (356-556) minimal catalytic domain, Val356-Arg556, GST-free, Form II, SEQ ID NO: 9 (Homo sapiens) (protein)
chain: VLRSKSLCHDEIENLLDSDHRELIGDYSKAFLLQTVDGKHQDLKYISPETMVALLTGKFSNIVDKFVIVDCRYPYEYEGGHIKTAVNLPLERDAESFLLKSPIAPCSLDKRVILIFHCEFSSERGPRMCRFIRERDRAVNDYPSLYYPEMYILKGGYKEFFPQHPNFCEPQDYRPMNHEAFKDELKTFRLKTRSWAGERSR
B4: human cdc25B Mutein3, cdc25B (356-566) with Arg556Lys/Arg557Lys, SEQ ID NO: 23 (Homo sapiens; R570K/R571K) (protein)
chain: VLRSKSLCHDEIENLLDSDHRELIGDYSKAFLLQTVDGKHQDLKYISPETMVALLTGKFSNIVDKFVIVDCRYPYEYEGGHIKTAVNLPLERDAESFLLKSPIAPCSLDKRVILIFHCEFSSERGPRMCRFIRERDRAVNDYPSLYYPEMYILKGGYKEFFPQHPNFCEPQDYRPMNHEAFKDELKTFRLKTRSWAGERSKKELCSRLQDQ

How the values were obtained:
[1] = target: GST-cdc25B (residues 355-566) fusion protein (Homo sapiens, UniProt P30305); conditions: PNPP as substrate, 37° C.; cited from earlier work
[2] = substrate: O=[N+]([O-])c1ccc(OP(=O)(O)O)cc1; experiment: purified protein, by the assay type; conditions: other: PNPP as substrate, 25° C., pH 8.0

Row | Molecule | Km [1] [mM] | Km [2] [mM] | Vmax [2] [nmol/min/mg]
1 | O=[N+]([O-])c1ccc(OP(=O)(O)O)cc1 [PNPP, p-nitrophenyl phosphate] | 16.6 | – | –
2 | B1 | – | 28 | 250
3 | B2 | – | 12.0 | –
4 | B3 | – | 2.0 | –
5 | B4 | – | 2.0 | –
